Test results as given in the RNAGym collection of RNA variant scans (doi:10.1073/pnas.2313332121).
Variants at the floor of the assay were thinned out.

B1: TPR 5TU (parent)
chain: GGAUCUUCUCGAUCUAACAAAAAAGACAAAUCUGCCACAAAGCUUGAGAGCAUCUUCGGAUGCAGAGGCGGCAGCCUUCGGUGGCGCGAUAGCGCCAACGUUCUCAACUAUGACACGCAAAACGCGUGCUCCGUUGAAUGGAGUUUAUCAUG

Variants of: B1
Test: polymerase ribozyme fitness, log enrichment relative to wild type (log ratio); higher = more active; in vitro selection for triplet polymerase activity
How it was run: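 A heterodimeric triplet polymerase ribozyme had each of its subunits mutagenized by PCR into a library, which was transcribed. One round of in vitro selection, done in triplicate, annealed each library with a biotinylated primer, its partner subunit and triplets, then incubated it frozen at −7 °C before gel excision of extended constructs, streptavidin-bead capture and RT-PCR. Fitness is the logarithm of genotype enrichment relative to wild-type enrichment, based on Illumina sequencing of inputs and outputs and inverse-variance-weighted replicate averages. A base-2 logarithm is used, and genotypes were kept only with ≥10 input reads and ≥1 read per output.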

| Variant | polymerase ribozyme fitness (log ratio) |
| --- | --- |
| A39G C87U A89G G126A C132U | ≤ -4.2 |
| A39U G74U G81C A91U A98G C99U G124A | ≤ -4.2 |
| A40C A49C C54A C96U C114U G126A | ≤ -4.2 |
| A39G G141C | -2.65 |
| A40G A47G U144G | -2.26 |
| A39G U56G G58C C79U U102A U127G | ≤ -4.2 |
| A39U A47G C95U A110G | -3.7 |
| A40C A41U C99U C125A | -2.04 |
| A40C G81A | 0.951 |
| A39U A47U C96U A122G G124A | -3.16 |
| A39U C72A G83A A137U | ≤ -4.2 |
| A39G C75U C85U | -3.44 |
| A40C U55A U104C | -0.475 |
| A40G C54U C76U A91C C95G G143U | ≤ -4.2 |
| A40G A52C G83U A98C | -3.64 |
| A40C G141A | 0.793 |
| A39C U45A G48U C57G G70A G83C C96U A115G G141A | ≤ -4.2 |
| A40C C54A A89U G94U | -2.57 |
| A40C U56A C57U G140C | -3.75 |
| A40C A60G U139C U144C | -3.63 |
| A39G C54G C57A | -3.22 |
| A40C G83C | 0.449 |
| A39G C118U | -1.27 |
| A39C C118G | -2.92 |

| Variant | polymerase ribozyme fitness (log ratio) |
| --- | --- |
| A40C G48A G58A C87U | -2.55 |
| A40G A41C A52G G71U A107G U111G U139C U146G C149A U151G | ≤ -4.2 |
| A39U C51U C54U A60G U82G A98C | -3.88 |
| A39G G58U G59C G124C G136A | ≤ -4.2 |
| A39U G42C U77C C85A C95G | ≤ -4.2 |
| A39C C85A C118A | -3.96 |
| A40G A115G A137G C149U | -4.02 |
| A40G C63G C85U U145A | -2.16 |
| A39G G59A C116U U144C | -4.19 |
| A40C C96U | -0.579 |
| A39G G48A C51U U56C G59U A150C | ≤ -4.2 |
| A39U G86A | -3.06 |
| A40C A52U G68C C85A G128C | ≤ -4.2 |
| A39U A49C A137G | ≤ -4.2 |
| A39U C54U C57G U61A C95G C125G | ≤ -4.2 |
| A40C A49U U56A C57A G88C U135A A137U | ≤ -4.2 |
| A39C G81A C99U C103G A107G C125U | ≤ -4.2 |
| A39U A66C G68A C108U A121U U134A G143U | ≤ -4.2 |
| A40G A41C C43A G83C C87G C96A | ≤ -4.2 |
| A40C C96U U144G U151G | -3.73 |
| A39C G59U C76G U146G | ≤ -4.2 |
| A39U C43U C85U G117U G126C C132G | ≤ -4.2 |
| A39G C57A C99G | -3.15 |
| A40C C76G U151A | ≤ -4.2 |

| Variant | polymerase ribozyme fitness (log ratio) |
| --- | --- |
| A40C A41C A49C A91U | ≤ -4.2 |
| A39U U55G U82C C85U U146C | -2.49 |
| A40G A52U A91C C108U G143C U148A | ≤ -4.2 |
| A40G A52G A91C A119U G128A | ≤ -4.2 |
| A39U G59C G83U A147U | -2.17 |
| A40C A41C G59A G70U G84A C85A C105G G141C G143U | ≤ -4.2 |
| A39G G117C | -1.91 |
| A40G C75G | -4.09 |
| A40C G48C U56G | -1.94 |
| A39U C93A C105G A113U C114G | ≤ -4.2 |
| A40C C54U U56A G126U | -0.0276 |
| A40C U53A | 0.24 |
| A40G A64G G136A | ≤ -4.2 |
| A40G C57A C72U C87A | ≤ -4.2 |
| A39U G84C | -3.33 |
| A40C G42A A52C G94C C99U | ≤ -4.2 |
| A39G C105G | -3.19 |
| A39U G46A C93G A119U U139G | ≤ -4.2 |
| A39C U55A C118U | -2.2 |
| A40G A41G G67C A120C | ≤ -4.2 |
| A40C A52G U82A G92U A106U | -3.38 |
| A39C G81C C85U C116A G141C | ≤ -4.2 |
| A39G U134G | -3.86 |
| A39G U55A C96A A97U | -3.27 |

| Variant | polymerase ribozyme fitness (log ratio) |
| --- | --- |
| A39G A97U | -2.96 |
| A39G G42A | -3.64 |
| A40C A113U C118U G136A | -2.68 |
| A39U C118U | -2.03 |
| A39G A89G G92A G141C | -3.85 |
| A39C G88U A97G A122G | ≤ -4.2 |
| A40C G42C C69G C85A U104G G128C G133A | ≤ -4.2 |
| A39G G88C A91U G136U | ≤ -4.2 |
| A39U G71C G84A C103U | ≤ -4.2 |
| A39U C69U C75U G84U U127G | ≤ -4.2 |
| A39U G59C G83U | -2.72 |
| A40C A122G | 0.759 |
| A40C G42U U55A C85A | ≤ -4.2 |
| A40C U44A A60G C69U C72U G83C U104A U127G G152A | ≤ -4.2 |
| A39U G48C G67A C85G G86U G88A G92A C118G | ≤ -4.2 |
| A40C U55A A89C | 0.0362 |
| A39C G84A | -3.26 |
| A40C U44A G59A C93A U109A | ≤ -4.2 |
| A39G G94C | -2.32 |
| A39U C76A G83U C125U | ≤ -4.2 |
| A40C G92A U109C G141U | ≤ -4.2 |
| A40C G50C C79U G81C C118U | ≤ -4.2 |
| A39G G59C U104A | -3.12 |
| A40C C75U C116U A119C | -1.75 |

| Variant | polymerase ribozyme fitness (log ratio) |
| --- | --- |
| A40C C51U C57A G94U C114G A150G | ≤ -4.2 |
| A40C A89U | 0.433 |
| A40C U82G A89G | 0.203 |
| A40C G50A C72U U78C C87U | ≤ -4.2 |
| A40C G50A A60U G88U G92C C95G G100U | ≤ -4.2 |
| A40G A60C U61A G81C U90G G94A C123A U139A | ≤ -4.2 |
| A39G U53A G58C C72G C95G C103G | ≤ -4.2 |
| A39C U130G | ≤ -4.2 |
| A39U C51U U61G A89U | ≤ -4.2 |
| A40G C43G A64C | ≤ -4.2 |
| A39U U44C U53A G62U G86A | ≤ -4.2 |
| A40C C93A | -1.96 |
| A39G A91G A137G | ≤ -4.2 |
| A39G G58U U82C C108A U146A A150C | ≤ -4.2 |
| A40C U53G A66G A119G | ≤ -4.2 |
| A39G G48A C54A G88A C125U U134G U145C | ≤ -4.2 |
| A39U C51G U55G U61G C85U C99U | ≤ -4.2 |
| A39U U53A A91G A97G U111G | -4.05 |
| A40C U148A | -3.51 |
| A40C A49U C57A C76A U82C G94U | ≤ -4.2 |
| A40C A98U A122U | 0.766 |
| A39U A52G G74U U90A A122G C125G C129U | ≤ -4.2 |
| A39C G59A C87A U139G | ≤ -4.2 |
| A39U U101C U144G | -2.52 |

| Variant | polymerase ribozyme fitness (log ratio) |
| --- | --- |
| A39C G62U G70A A115G | ≤ -4.2 |
| A39U G80C A91U | ≤ -4.2 |
| A39G C103G G126U | ≤ -4.2 |
| A39C U82G G83C G133C | ≤ -4.2 |
| A40C C85U G133C A142G | -3.92 |
| A40C G48C G81U C85A | -1.52 |
| A40C G50A C95U U148C | ≤ -4.2 |
| A40C U134A | -1.77 |
| A40C U82G G94A | 0.746 |
| A39U U55A G83U C95G A115C C149G | ≤ -4.2 |
| A40C G86A G141C A147C | ≤ -4.2 |
| A40C A89G A150G | -3.25 |
| A39G G42A G48C A49C G83U C87G C96A A107U | ≤ -4.2 |
| A40C G50U U148A | ≤ -4.2 |
| A39G G62A G94A A120U G143U | ≤ -4.2 |
| A39G G80C C93U C118U | -3.96 |
| A39C U145C | -1.66 |
| A40C C96U A122G G124C | -0.809 |
| A39U A64G G86A A89G U135A | ≤ -4.2 |
| A39C G65C G83C G143A A150U | ≤ -4.2 |
| A39G C57A C87U | -1.73 |
| A39G A60C | -3.03 |
| A40C G68U G86A C103G | ≤ -4.2 |
| A40G A41U A49U G58C G74U C85A U139G G141C U148C | ≤ -4.2 |

| Variant | polymerase ribozyme fitness (log ratio) |
| --- | --- |
| A40C G100U U102G U135A | ≤ -4.2 |
| A40G A64C G70A C114U | ≤ -4.2 |
| A40C A97U | -0.185 |
| A40C A97C | 1.5 |
| A39U G58C G88A | ≤ -4.2 |
| A39C G62A A66U U134G G143A | ≤ -4.2 |
| A40C A119C | 0.851 |
| A40G C69G G70U G83A A150U | ≤ -4.2 |
| A40C C85U C95U A98G G126U | -1.37 |
| A39G G42A G88C | ≤ -4.2 |
| A39C G71C U78A C95U A122G | ≤ -4.2 |
| A40G A49U A60C C76A C96U U134G | ≤ -4.2 |
| A39U A64U C87G | ≤ -4.2 |
| A39G U55G G84A U135G | ≤ -4.2 |
| A39C C118U A120U | -1.81 |
| A39C U55G G81C A121U | -2.31 |
| A39C G88C A97G C114G | ≤ -4.2 |
| A39U A41U U56A G71A | ≤ -4.2 |
| A40C G46A A91G U104G A119G U148G | ≤ -4.2 |
| A39G G83A G141C | -3.09 |
| A40G A41G U53G C85A U127G C131U G143A | ≤ -4.2 |
| A40C A52G C79A C85U C99A A106G A142U G152U | ≤ -4.2 |
| A39C U44G C75U C95U A119U G128U | ≤ -4.2 |
